In PMC9078787:

Molecular target: Fcγ receptor IIIa (UniProt P08637)
UniProt P08637, sequence (P08637 17-208): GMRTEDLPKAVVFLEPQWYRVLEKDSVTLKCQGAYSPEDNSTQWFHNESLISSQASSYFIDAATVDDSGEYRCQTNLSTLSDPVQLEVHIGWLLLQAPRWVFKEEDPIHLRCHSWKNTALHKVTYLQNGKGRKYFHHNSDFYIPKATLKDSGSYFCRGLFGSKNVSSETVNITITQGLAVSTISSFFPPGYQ

Pertuzumab (trademark: Perjeta®) (antibody)
ADCC reporter-gene assay (Jurkat-CD16a-FcεRIγ-NFAT-luc effector cells, SK-BR-3 target cells), relative activity by EC50; batch H0323B07 (%afucose 4.2), the reference standard (%relative activity): 100
ADCC reporter-gene assay, relative activity by EC50; batch H0324B01 (%afucose 4.1) (%relative activity): 96
ADCC reporter-gene assay, relative activity by EC50; batch H0337B01 (%afucose 2.6) (%relative activity): 82
ADCC reporter-gene assay, relative activity by EC50; batch H0340B01 (%afucose 2.4) (%relative activity): 73
ADCC reporter-gene assay, relative activity by EC50; batch H0371B01 (%afucose 2.1) (%relative activity): 91
ADCC reporter-gene assay, relative activity by EC50; batch H0382B04 (%afucose 3.7) (%relative activity): 84
ADCC reporter-gene assay, relative activity by EC50; batch H0383B01 (%afucose 1.8) (%relative activity): 78
ADCC reporter-gene assay, relative activity by EC50; batch H0388B01 (%afucose 2.3) (%relative activity): 81
ADCC reporter-gene assay, relative activity by EC50; batch H0389B01 (%afucose 1.9) (%relative activity): 76
ADCC reporter-gene assay, relative activity by EC50; batch H0391B01 (%afucose 2.1) (%relative activity): 71
ADCC reporter-gene assay, relative activity by EC50; batch H0394B01 (%afucose 2.1) (%relative activity): 73
ADCC reporter-gene assay, relative activity by EC50; batch H0395B02 (%afucose 2.1) (%relative activity): 76
ADCC reporter-gene assay, relative activity by EC50; batch H0396B01 (%afucose 2.1) (%relative activity): 71
ADCC reporter-gene assay, relative maximum response; batch H0323B07 (%afucose 4.2), the reference standard (%relative activity): 100
ADCC reporter-gene assay, relative maximum response; batch H0324B01 (%afucose 4.1) (%relative activity): 103
ADCC reporter-gene assay, relative maximum response; batch H0337B01 (%afucose 2.6) (%relative activity): 86
ADCC reporter-gene assay, relative maximum response; batch H0340B01 (%afucose 2.4) (%relative activity): 88
ADCC reporter-gene assay, relative maximum response; batch H0371B01 (%afucose 2.1) (%relative activity): 72
ADCC reporter-gene assay, relative maximum response; batch H0382B04 (%afucose 3.7) (%relative activity): 96
ADCC reporter-gene assay, relative maximum response; batch H0383B01 (%afucose 1.8) (%relative activity): 70
ADCC reporter-gene assay, relative maximum response; batch H0388B01 (%afucose 2.3) (%relative activity): 74
ADCC reporter-gene assay, relative maximum response; batch H0389B01 (%afucose 1.9) (%relative activity): 70
ADCC reporter-gene assay, relative maximum response; batch H0391B01 (%afucose 2.1) (%relative activity): 78
ADCC reporter-gene assay, relative maximum response; batch H0394B01 (%afucose 2.1) (%relative activity): 74
ADCC reporter-gene assay, relative maximum response; batch H0395B02 (%afucose 2.1) (%relative activity): 75
ADCC reporter-gene assay, relative maximum response; batch H0396B01 (%afucose 2.1) (%relative activity): 80
